The text below walks through data of patent publication US20230212549A1, “COMPOUNDS COMPRISING A […] LIGAND AND USE THEREOF” (priority 2021, published 2023).

Bridge positions count the residues as written; N and C are the ends.

The target in one assay is T1, ETA (h) (human), P25101.
T1 chain: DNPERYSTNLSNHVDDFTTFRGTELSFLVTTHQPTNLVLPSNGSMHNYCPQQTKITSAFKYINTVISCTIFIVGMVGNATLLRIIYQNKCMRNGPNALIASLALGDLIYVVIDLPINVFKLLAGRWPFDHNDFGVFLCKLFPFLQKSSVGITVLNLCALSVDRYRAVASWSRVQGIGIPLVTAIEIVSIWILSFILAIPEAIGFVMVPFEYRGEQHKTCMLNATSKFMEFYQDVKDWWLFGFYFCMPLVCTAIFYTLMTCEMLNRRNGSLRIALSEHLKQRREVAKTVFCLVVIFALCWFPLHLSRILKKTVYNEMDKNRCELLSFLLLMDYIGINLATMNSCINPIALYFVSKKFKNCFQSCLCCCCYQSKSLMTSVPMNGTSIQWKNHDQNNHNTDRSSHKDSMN
Put plainly: radioligand displacement (agonist radioligand), 10 µM. The following applies: remark: other sources report otherwise. A general note: Loss of bound radioactivity is the signal in a displacement assay; it reports binding, not function.

In the next assay the target is T2, A2A (h) (human), P29274.
T2 chain: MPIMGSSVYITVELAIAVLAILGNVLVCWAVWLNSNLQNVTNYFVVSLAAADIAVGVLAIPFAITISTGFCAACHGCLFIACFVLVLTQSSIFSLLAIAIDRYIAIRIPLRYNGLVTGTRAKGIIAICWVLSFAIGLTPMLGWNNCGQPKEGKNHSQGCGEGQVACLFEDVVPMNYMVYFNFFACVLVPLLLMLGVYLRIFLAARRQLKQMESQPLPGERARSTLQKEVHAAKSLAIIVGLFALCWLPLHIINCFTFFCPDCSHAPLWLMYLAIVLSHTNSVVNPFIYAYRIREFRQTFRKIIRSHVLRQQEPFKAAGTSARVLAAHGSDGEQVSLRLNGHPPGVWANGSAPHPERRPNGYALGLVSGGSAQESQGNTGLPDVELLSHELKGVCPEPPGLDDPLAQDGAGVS
The assay is described as above. The following applies: remark: other sources report otherwise.

The next assay concerns the target T3, CB1 (h) (human), P21554.
T3 chain: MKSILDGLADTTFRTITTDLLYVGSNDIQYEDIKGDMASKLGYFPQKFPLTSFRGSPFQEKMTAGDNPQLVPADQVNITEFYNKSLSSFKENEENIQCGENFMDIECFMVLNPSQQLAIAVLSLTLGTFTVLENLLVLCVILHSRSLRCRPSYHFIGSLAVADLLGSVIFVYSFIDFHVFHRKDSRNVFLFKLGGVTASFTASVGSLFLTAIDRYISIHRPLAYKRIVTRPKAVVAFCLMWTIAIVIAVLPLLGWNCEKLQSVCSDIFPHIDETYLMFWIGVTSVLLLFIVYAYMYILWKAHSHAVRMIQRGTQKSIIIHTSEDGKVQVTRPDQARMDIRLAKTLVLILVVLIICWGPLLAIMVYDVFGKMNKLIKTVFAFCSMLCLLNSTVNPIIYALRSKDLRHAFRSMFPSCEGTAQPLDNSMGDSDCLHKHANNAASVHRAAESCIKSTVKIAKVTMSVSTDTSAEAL
The assay is described as above. The following applies: remark: other sources report otherwise.

Assay [1] has as its target T4, 5-HT1A (h) (human), P08908.
T4 chain: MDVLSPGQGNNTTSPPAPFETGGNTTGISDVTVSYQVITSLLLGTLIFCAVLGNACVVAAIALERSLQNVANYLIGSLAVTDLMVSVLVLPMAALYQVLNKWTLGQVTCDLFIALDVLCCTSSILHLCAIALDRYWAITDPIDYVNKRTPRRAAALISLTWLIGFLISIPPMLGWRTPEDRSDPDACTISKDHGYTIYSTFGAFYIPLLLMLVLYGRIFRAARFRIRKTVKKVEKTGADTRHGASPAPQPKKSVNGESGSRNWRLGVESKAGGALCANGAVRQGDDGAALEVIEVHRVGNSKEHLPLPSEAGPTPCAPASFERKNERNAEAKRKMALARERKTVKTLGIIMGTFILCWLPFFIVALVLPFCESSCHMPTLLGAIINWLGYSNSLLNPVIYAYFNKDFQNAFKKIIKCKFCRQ
Described as above. The following applies: remark: other sources report otherwise.

Assay [2] concerns the target beta 1 (h) (human), P08588. The description is as above. The following applies: remark: other sources report otherwise.
The next assay addresses T5, DPP3, Q9NY33.
T5 chain: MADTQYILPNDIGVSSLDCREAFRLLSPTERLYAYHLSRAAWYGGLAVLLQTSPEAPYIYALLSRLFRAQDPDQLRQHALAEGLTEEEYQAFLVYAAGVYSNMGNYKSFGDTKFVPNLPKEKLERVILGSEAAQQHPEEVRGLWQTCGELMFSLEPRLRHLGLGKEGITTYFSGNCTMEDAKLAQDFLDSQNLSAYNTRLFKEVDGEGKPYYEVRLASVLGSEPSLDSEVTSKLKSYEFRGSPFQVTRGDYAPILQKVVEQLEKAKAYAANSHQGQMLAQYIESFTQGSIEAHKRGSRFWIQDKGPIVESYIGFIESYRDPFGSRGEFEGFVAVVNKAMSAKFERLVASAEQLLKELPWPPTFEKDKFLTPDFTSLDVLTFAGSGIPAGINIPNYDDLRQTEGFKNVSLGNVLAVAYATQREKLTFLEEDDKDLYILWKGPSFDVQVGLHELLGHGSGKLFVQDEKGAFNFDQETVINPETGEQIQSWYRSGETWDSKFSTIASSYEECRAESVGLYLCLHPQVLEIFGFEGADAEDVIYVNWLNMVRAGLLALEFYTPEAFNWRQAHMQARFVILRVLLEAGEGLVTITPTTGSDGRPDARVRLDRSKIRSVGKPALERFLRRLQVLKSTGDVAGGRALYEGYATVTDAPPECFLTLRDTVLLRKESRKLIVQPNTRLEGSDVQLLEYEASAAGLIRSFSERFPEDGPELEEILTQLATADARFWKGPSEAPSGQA
Put plainly: cell-based or functional assay.

Sequence of beta 1 (h) (human), P08588 (P08588 whole entry): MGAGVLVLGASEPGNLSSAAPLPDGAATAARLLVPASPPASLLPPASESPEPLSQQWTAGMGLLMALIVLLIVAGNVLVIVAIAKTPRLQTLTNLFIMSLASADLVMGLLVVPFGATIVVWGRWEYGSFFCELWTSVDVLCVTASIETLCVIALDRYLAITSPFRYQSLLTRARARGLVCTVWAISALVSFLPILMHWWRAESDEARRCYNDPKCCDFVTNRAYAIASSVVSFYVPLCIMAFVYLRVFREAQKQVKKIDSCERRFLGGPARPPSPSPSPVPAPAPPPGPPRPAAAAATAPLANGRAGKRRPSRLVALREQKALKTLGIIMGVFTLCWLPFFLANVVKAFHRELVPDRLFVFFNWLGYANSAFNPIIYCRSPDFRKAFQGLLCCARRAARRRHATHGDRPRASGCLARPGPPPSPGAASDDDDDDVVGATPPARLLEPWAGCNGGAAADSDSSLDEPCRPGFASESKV

B1: Hex-[Cys(tMeBn(DOTA-PP))-Pro-Pro-Thr-Gln-Phe-Cys]-Asp-NH2 (peptide)
peptide: Hex-CPPTQFCD-NH2
modifications: bridge 1-7; not fully specified (bridges); printed as Hex-[Cys(tMeBn(DOTA-PP))-Pro-Pro-Thr-Gln-Phe-Cys]-Asp-NH2
B1: the % Inhibition of Specific Binding in the assay with ETA (h) (human), P25101 is -18%; with A2A (h) (human), P29274, -4%; in the assay with CB1 (h) (human), P21554, 5%; in assay [1] it was -3%; in assay [2], 4%.

B2: Hex-[Cys(tMeBn(DOTA-AET))-Pro-Pro-Thr-Gln-Phe-Cys]-OH (peptide)
peptide: Hex-CPPTQFC-OH
modifications: bridge 1-7; not fully specified (bridges); printed as Hex-[Cys(tMeBn(DOTA-AET))-Pro-Pro-Thr-Gln-Phe-Cys]-OH
As for B2, the % Inhibition of Specific Binding was 6% with ETA (h) (human), P25101; -16% with A2A (h) (human), P29274; -7% with CB1 (h) (human), P21554; -5% in assay [1]; -13% in assay [2]. In the assay with DPP3, Q9NY33, the Percentage inhibition (%) at 1 µM worked out at 2%. For the same molecule, the Percentage inhibition (%) at 10 µM with DPP3, Q9NY33 is -1%.
